Assay results: article PMC3970736, “Peptide transporter isoforms are discriminated by the fluorophore‐conjugated dipeptides β‐Ala‐ and d‐Ala‐Lys‐N‐7‐amino‐4‐methylcoumarin‐3‐acetic acid” (Physiological Reports, 2013)

What was measured:
Assay in all cases: two-electrode voltage clamp, Xenopus oocytes, Michaelis-Menten fit of transport current
[1] = substrate: Cc1c(CC(=O)NCCCC[C@H](NC(=O)CCN)C(=O)O)c(=O)oc2cc(N)ccc12; type: cell-based, Oryctolagus cuniculus; conditions: pH 6.5, -160 mV, 0.05-2 mmol/L range, apparent transport affinity
Excerpt: (§1) two-electrode voltage clamp, Xenopus oocytes, Michaelis-Menten fit of transport current on rPEPT2

[2] = substrate: NCC(=O)N[C@@H](CCC(N)=O)C(=O)O; type: cell-based, Oryctolagus cuniculus; conditions: pH 6.5, -160 mV, apparent transport affinity, GQ Km values 'in part published previously'
Excerpt: as §1

[3] = substrate: Cc1c(CC(=O)NCCCC[C@H](NC(=O)CCN)C(=O)O)c(=O)oc2cc(N)ccc12; type: cell-based, Danio rerio; conditions: pH 6.5, -160 mV, 0.05-2 mmol/L range, apparent transport affinity
Excerpt: (§2) two-electrode voltage clamp, Xenopus oocytes, Michaelis-Menten fit of transport current on zfPEPT2

[4] = substrate: NCC(=O)N[C@@H](CCC(N)=O)C(=O)O; type: cell-based, Danio rerio; conditions: pH 6.5, -160 mV, apparent transport affinity, GQ Km values 'in part published previously'
Excerpt: as §2

[5] = substrate: Cc1c(CC(=O)NCCCC[C@H](NC(=O)CCN)C(=O)O)c(=O)oc2cc(N)ccc12; type: cell-based, Caenorhabditis elegans; conditions: pH 6.5, -60 mV, 0.5-4 mmol/L range, apparent transport affinity
Excerpt: (§3) two-electrode voltage clamp, Xenopus oocytes, Michaelis-Menten fit of transport current on cePEPT1

[6] = substrate: NCC(=O)N[C@@H](CCC(N)=O)C(=O)O; type: cell-based, Caenorhabditis elegans; conditions: pH 6.5, -60 mV, apparent transport affinity, GQ Km values 'in part published previously'
Excerpt: as §3

B1: rPEPT2 (Oryctolagus cuniculus) (protein)
chain: MNPFQQNESKETLFSPVSTEETPPRLSSPAKKTPPKICGSNYPLSIAFIVVNEFCERFSYYGMKAVLTLYFLYFLHWNEDTSTSVYHAFSSLCYFTPILGAAIADSWLGKFKTIIYLSLVNVLGHVIKSLSAFPILGGKVVHTVLSLVGLCLIALGTGGIKPCVAAFGGDQFEEKHAEERTRYFSGFYLAINAGSLISTFITPMLRGDVQCFGEDCYALAFGVPGLLMVIALVVFAMGSKMYKKPPPEGNIVAQVVKCIWFAISNRFKNRSEDIPKRQHWLDWAAEKYPKQLIMDVKTLTRVLFLYIPLPMFWALLDQQGSRWTLQATKMNGNLGFFVLQPDQMQVLNPLLVLIFIPLFDLVIYRLISKCGINFTSLRKMAVGMVLACLAFAAAATVEIKINEMAPPQPGSQEILLQVLNLADDEVKLTVLGNNNNSLLADSIKSFQKTPHYSKIHLNTKSQDFYFHLKYHNLSIYTEHSVEERNWYSLIIREDGKSISSIMVKDMENETTYGMTAIRFINTLQENVNISLGTDISLNVGENYGVSAYRTVQRGEYPAVHCKTEDKDFSLNLGLLDFGASYLFVITNSTKQGLQAWKMEDIPANKVSIAWQLPQYALVTAGEVMFSVTGLEFSYSQAPSSMKSVLQAAWLLTVAIGNIIVLVVAQFSGLVQWAEFVLFSCLLLVVCLIFSIMGYYYIPIKSEDIQGPEDKQIPHMQGNMINLETKKTKL
notes: full-length (729 residues) cRNA expressed in Xenopus laevis oocytes
- Km [1]: 290 ± 27 µM
- Km [2]: 150 ± 33 µM

B2: zfPEPT2 (Danio rerio) (protein)
chain: MGKMKDKDVDAEKYEKAQRSPKLCGTNYPVSIAFIVVNEFCERFSYYGMKAVLTLYFMNYLHWDKNLSTAIYHAFSGLCYFTPLLGALIADSWLGKFKTIIYLSIVYVIGHVVKSVGAIPDVGDSTVHIALSMVGLGLIALGTGGIKPCVAAFGGDQFDEDNIDERRKFFSIFYMSINAGSVLSTIITPILRGDVQCFGGDCYALAFGVPAALMVIALVVFISGSGLYKKSPPEGNVLVRVCKCIGFAISNRWTNSKKSPKRSHWLDWAEEKYSKRLIQEIKMVCRVLVLYIPLPMFWALFDQQGSRWTLQATRMNMDFGGGFIIKPDQMQMLNALLILVFIPIFDMGIYPLVGLCRIKLTPLKKMATGMILAALAFCAATAVEVYVIKTVVEPPPAKESLVQVYNLMDSDVTVQFPAHNVFSEPLKPYEEPSGYSSLPLTGESQLQNVVVSHNGMNYQCRLTFTERMAYSLLLHPTAQHNGSVCNLVKDHITKSETGAAYIRFINTHTENINVTVGTEEVHASANYGISRNISVPRGEYNKAVCVTDTKEYEINLGLLDFGAFYTVILSEAGNNLAVKKMEDIQANNIHIGWQIPQYVFLTAGEVMFSITGLEFSYSQAPASMKSVLQAGWLMTVAFGNVIVLIVAEGAGMEQWVEFLLFAALLVAVSIIFSIMAYFYTYVDPDQLDKLFKEDGDGGKVESSKKDELSLGDMPKQTKM
notes: full-length cRNA expressed in Xenopus laevis oocytes
- Km [3]: 296 ± 26 µM
- Km [4]: 79 ± 12 µM

B3: cePEPT1 (Caenorhabditis elegans) (protein)
chain: MGYSESRSESVSSKGKTSYGHELETVPLPEKKIYTTWPDMIRHWPKTTLCIVSNEFCERFSYYGMRTVLTFYLLNVLKFTDSQSTIFFNGFTVLCYTTPLLGSIVADGYIGKFWTIFSVSILYAIGQVVLALASTKNFQSSVHPWMDLSGLLIIAFGTGGIKPCVSAFGGDQFELGQERMLSLFFSMFYFSINAGSMISTFISPIFRSQPCLGQDSCYPMAFGIPAILMIVATLVFMGGSFWYKKNPPKDNVFGEVSRLMFRAVGNKMKSGSTPKEHWLLHYLTTHDCALDAKCLELQAEKRNKNLCQKKKFIDDVRSLLRVLVMFLPVPMFWALYDQQGSVWLIQAIQMDCRLSDTLLLLPDQMQTLNAVLILLFIPLFQVIIYPVAAKCVRLTPLRKMVTGGLLASLAFLITGFVQLQVNTTLPTLPEEGEASISFWNQFETDCTITVMSGIHKRVLPHDKYLHEDKKNKSGIYNLFTTKSPAKGNGDWTLTYDLSYDGACGDTSKLEKTVKVTAKSKKIIYVGVGSFGYYQNTANTDKPTDGTGEFSMGIVTVFNSSYGGNFAMCRQNTSDFDVNHPCNPRHPADFYFWETDYNSHTDDRDQNATITGSLSSQPAVTYKQKSVKPGYWQLYYLLNTPKDVDRQTYNKTATLVAPTNYGFHRVKQGGVFIYALTGTYENPKIHELQIVQSNSVSILWQIPQIVVITAAEILFSITGYEFAYSQSAPSMKALVQALWLLTTAAGDSIIVVITILNLFENMAVEFFVYAAAMFVVIAIFALLSIFYYTYNYYTTDEEDGEIGVDDEEEIEDHNPRYSIDNKGFHPDEKDTFDMHF
notes: as for B2
- Km [5]: 4640 ± 1670 µM
- Km [6]: 7450 ± 610 µM
